Data published in the supplement of paper PMC7877785.
± gives the uncertainty stated by the source.

Assay: self-splicing fitness, log relative to wild type (ln ratio); higher = more splicing; Tetrahymena group I intron in knt gene, E. coli kanamycin selection, DiMSum; sequences stand for … in CUCUCU…GGAGGGAAAAGUUAUCAGGCAUGCACCUGGUAGCUAGUCUUUAAACCAAUAGAUUGCAUCGGUUUAAAAGGCAAGACCGUCAAAUUGCGGGAAAGGGGUCAACAGCCGUUCAGUACCAAGUCUCAGGGGAAACUUUGAGAUGGCCUUGCAAAGGGUAUGGUAAUAAGCUGACGGACAUGGUCCUAACCACGCAGCCAAGUCCUAAGUCAACAGAUCUUCUGUUGAUAUGGAUGCAGUUCACAGACUAAAUGUCGGUCGGGGAAGAUGUAUUCUUCUCAUAAGAUAUAGUCGGACCUCUCCUUAAUGGGAGCUAGCGGAUGAAGUGAUGCAACACUGGAGCCGCUGGGAACUAAUUUGUAUGCGAAAGUAUAUUGAUUAGUUUUGGAGUACUCGUGGUCG
In short: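 Fitness was computed with DiMSum as the error-weighted combination of replicate fold changes, kanamycin versus none, each normalised to wild type. The library randomised all eight intron nucleotides of the P1ex region, with the intron placed in the knt kanamycin-resistance gene on pET-22b(+) in E. coli BL21(DE3). Six replicate transformations were grown overnight at 37°C or 30°C on LB agar with or without 25 μg/mL kanamycin, plus 100 μg/mL carbenicillin, 50 μM IPTG and 0.2% rhamnose. Pooled colonies were amplicon-sequenced on an Illumina HiSeq 2500.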

| Sequence | self-splicing fitness (ln) (30 °C) | self-splicing fitness (ln) (37 °C) |
| --- | --- | --- |
| GGCAAGCAAUAUUACGUGGU | -2.43 ± 0.085 | -1.57 ± 0.075 |
| GGCAAGCAAUAUUACGUUGG | -2.5 ± 0.075 | -2.93 ± 0.12 |
| GGCCAGCAAUAUUACGAACG | -2.65 ± 0.41 | -0.764 ± 0.3 |
| GGCCAGCAAUAUUACGACAA | -2.78 ± 0.24 | -1.71 ± 0.19 |
| GGCCAGCAAUAUUACGACUC | -1.21 ± 0.11 | 0.0572 ± 0.13 |
| GGCCAGCAAUAUUACGACUU | -0.142 ± 0.084 | 0.435 ± 0.11 |
| GGCCAGCAAUAUUACGAGGC | -2.66 ± 0.23 | -2.94 ± 0.4 |
| GGCCAGCAAUAUUACGAUUA | -3.4 ± 0.21 | -2.05 ± 0.15 |
| GGCCAGCAAUAUUACGAUUU | -1.9 ± 0.12 | -0.659 ± 0.13 |
| GGCCAGCAAUAUUACGCCUA | -1.05 ± 0.15 | -1.05 ± 0.15 |
| GGCCAGCAAUAUUACGCUGC | – | -1.67 ± 0.22 |
| GGCCAGCAAUAUUACGCUGG | -3.98 ± 0.27 | -2.27 ± 0.24 |
| GGCCAGCAAUAUUACGGAAA | -1.27 ± 0.11 | -0.606 ± 0.13 |
| GGCCAGCAAUAUUACGGCCG | -3.47 ± 0.22 | -3 ± 0.23 |
| GGCCAGCAAUAUUACGGCUA | -0.439 ± 0.097 | -0.0906 ± 0.1 |
| GGCCAGCAAUAUUACGGCUU | -3.45 ± 0.21 | -2.68 ± 0.22 |
| GGCCAGCAAUAUUACGGGGC | -5.35 ± 0.32 | -4.33 ± 0.23 |
| GGCCAGCAAUAUUACGGGGU | -3.68 ± 0.24 | -3.21 ± 0.26 |
| GGCCAGCAAUAUUACGGGUC | -3.65 ± 0.26 | -2.41 ± 0.23 |
| GGCCAGCAAUAUUACGGUAC | -3.7 ± 0.19 | -2.3 ± 0.15 |
| GGCCAGCAAUAUUACGGUGG | -2.52 ± 0.14 | -1.85 ± 0.14 |
| GGCCAGCAAUAUUACGUCAA | -1.34 ± 0.31 | -2.61 ± 0.35 |
| GGCCAGCAAUAUUACGUCUC | -1.1 ± 0.089 | -0.447 ± 0.12 |
| GGCCAGCAAUAUUACGUCUG | -3.07 ± 0.24 | -2.93 ± 0.32 |
| GGCCAGCAAUAUUACGUUGU | -0.721 ± 0.072 | -0.537 ± 0.1 |

| Sequence | self-splicing fitness (ln) (30 °C) | self-splicing fitness (ln) (37 °C) |
| --- | --- | --- |
| GGCGAGCAAUAUUACGACGU | -1.36 ± 0.16 | -0.783 ± 0.21 |
| GGCGAGCAAUAUUACGAGAG | -3.79 ± 0.39 | -2.54 ± 0.33 |
| GGCGAGCAAUAUUACGAGAU | -3.61 ± 0.32 | -2.37 ± 0.49 |
| GGCGAGCAAUAUUACGAGGA | -3.43 ± 0.43 | -2.43 ± 0.25 |
| GGCGAGCAAUAUUACGAUAA | -1.64 ± 0.13 | -0.294 ± 0.15 |
| GGCGAGCAAUAUUACGAUAU | -2.12 ± 0.12 | -0.859 ± 0.12 |
| GGCGAGCAAUAUUACGAUGU | -3.69 ± 0.32 | -1.53 ± 0.2 |
| GGCGAGCAAUAUUACGAUUU | -1.09 ± 0.092 | -0.569 ± 0.12 |
| GGCGAGCAAUAUUACGCAAC | -0.841 ± 0.36 | -0.673 ± 0.27 |
| GGCGAGCAAUAUUACGCAUA | -1.15 ± 0.17 | -0.988 ± 0.16 |
| GGCGAGCAAUAUUACGCCAG | -1 ± 0.18 | -2.71 ± 0.44 |
| GGCGAGCAAUAUUACGCCGA | -2.65 ± 0.18 | -1.45 ± 0.091 |
| GGCGAGCAAUAUUACGCGAC | -2.61 ± 0.42 | – |
| GGCGAGCAAUAUUACGCGAU | -3.7 ± 0.26 | -1.62 ± 0.19 |
| GGCGAGCAAUAUUACGCGUU | -2.26 ± 0.24 | -1.94 ± 0.3 |
| GGCGAGCAAUAUUACGCUCU | -2.72 ± 0.23 | -2.06 ± 0.2 |
| GGCGAGCAAUAUUACGGAAU | -2.91 ± 0.19 | -1.87 ± 0.21 |
| GGCGAGCAAUAUUACGGCGA | -0.138 ± 0.078 | -0.0802 ± 0.092 |
| GGCGAGCAAUAUUACGGCUA | -0.343 ± 0.13 | 0.287 ± 0.14 |
| GGCGAGCAAUAUUACGGCUC | -1.83 ± 0.11 | -0.815 ± 0.21 |
| GGCGAGCAAUAUUACGGGUC | -1.2 ± 0.26 | -1.81 ± 0.35 |
| GGCGAGCAAUAUUACGGGUU | -2.52 ± 0.15 | -1.32 ± 0.13 |
| GGCGAGCAAUAUUACGUCAU | -2.45 ± 0.14 | -1.76 ± 0.11 |
| GGCGAGCAAUAUUACGUCCU | -2.41 ± 0.1 | -1.28 ± 0.09 |
| GGCGAGCAAUAUUACGUCGC | -2.72 ± 0.23 | – |

| Sequence | self-splicing fitness (ln) (30 °C) | self-splicing fitness (ln) (37 °C) |
| --- | --- | --- |
| GGCGAGCAAUAUUACGUGAC | -1.24 ± 0.18 | -1.65 ± 0.29 |
| GGCGAGCAAUAUUACGUGAG | -3.25 ± 0.18 | -2.57 ± 0.2 |
| GGCGAGCAAUAUUACGUGUG | -1.13 ± 0.1 | -0.745 ± 0.14 |
| GGCGAGCAAUAUUACGUUAG | -1.94 ± 0.15 | -2.49 ± 0.4 |
| GGCGAGCAAUAUUACGUUCA | -0.77 ± 0.1 | 0.0965 ± 0.13 |
| GGCUAGCAAUAUUACGAGAG | -2.09 ± 0.16 | -3.24 ± 0.32 |
| GGCUAGCAAUAUUACGAGGG | -2.39 ± 0.21 | -2.27 ± 0.42 |
| GGCUAGCAAUAUUACGAGUG | -0.589 ± 0.084 | 0.347 ± 0.12 |
| GGCUAGCAAUAUUACGCAGG | -3.5 ± 0.28 | -1.81 ± 0.19 |
| GGCUAGCAAUAUUACGCGAG | -4.46 ± 0.39 | -2.74 ± 0.28 |
| GGCUAGCAAUAUUACGCGAU | -1.74 ± 0.19 | -0.776 ± 0.2 |
| GGCUAGCAAUAUUACGCGUA | -0.142 ± 0.14 | 0.00477 ± 0.15 |
| GGCUAGCAAUAUUACGGAAA | -2.79 ± 0.41 | -1.92 ± 0.29 |
| GGCUAGCAAUAUUACGGCGA | -0.177 ± 0.13 | 0.0471 ± 0.14 |
| GGCUAGCAAUAUUACGGCGG | -1.32 ± 0.13 | -0.684 ± 0.19 |
| GGCUAGCAAUAUUACGGGAA | -0.617 ± 0.14 | -1.06 ± 0.2 |
| GGCUAGCAAUAUUACGGGGG | -3.9 ± 0.37 | -2.09 ± 0.21 |
| GGCUAGCAAUAUUACGGUGU | -0.416 ± 0.062 | 0.178 ± 0.069 |
| GGCUAGCAAUAUUACGUAAA | -0.62 ± 0.084 | -0.198 ± 0.1 |
| GGCUAGCAAUAUUACGUACC | -0.292 ± 0.21 | 0.368 ± 0.23 |
| GGCUAGCAAUAUUACGUAGA | -0.208 ± 0.079 | -0.236 ± 0.1 |
| GGCUAGCAAUAUUACGUAUU | -0.862 ± 0.1 | -0.777 ± 0.12 |
| GGCUAGCAAUAUUACGUUCA | -0.464 ± 0.094 | 0.156 ± 0.11 |
| GGCUAGCAAUAUUACGUUGC | -1.94 ± 0.17 | -1.38 ± 0.2 |
| GGCUAGCAAUAUUACGUUGU | -1.59 ± 0.083 | -0.434 ± 0.11 |

| Sequence | self-splicing fitness (ln) (30 °C) | self-splicing fitness (ln) (37 °C) |
| --- | --- | --- |
| GGGAAGCAAUAUUACGACAG | -3.01 ± 0.31 | -3 ± 0.37 |
| GGGAAGCAAUAUUACGACCU | -2.31 ± 0.27 | – |
| GGGAAGCAAUAUUACGAGGU | -2.81 ± 0.31 | – |
| GGGAAGCAAUAUUACGAUAC | -0.528 ± 0.14 | -0.986 ± 0.16 |
| GGGAAGCAAUAUUACGCAAG | -2.81 ± 0.16 | -1.14 ± 0.14 |
| GGGAAGCAAUAUUACGCAGG | -3.02 ± 0.22 | -2.32 ± 0.28 |
| GGGAAGCAAUAUUACGCAUC | -2.36 ± 0.39 | -1.77 ± 0.32 |
| GGGAAGCAAUAUUACGCCGU | -0.357 ± 0.36 | -0.232 ± 0.31 |
| GGGAAGCAAUAUUACGCGAU | -3.63 ± 0.27 | -0.798 ± 0.17 |
| GGGAAGCAAUAUUACGCGGU | -3.44 ± 0.31 | -1.4 ± 0.21 |
| GGGAAGCAAUAUUACGCGUC | -3.64 ± 0.3 | -2.86 ± 0.47 |
| GGGAAGCAAUAUUACGCUGA | -2.63 ± 0.33 | -1.54 ± 0.25 |
| GGGAAGCAAUAUUACGGGAU | – | -0.0224 ± 0.27 |
| GGGAAGCAAUAUUACGGGUG | -2.68 ± 0.13 | -2.12 ± 0.18 |
| GGGAAGCAAUAUUACGGUUC | -2.44 ± 0.18 | -1.03 ± 0.22 |
| GGGAAGCAAUAUUACGGUUG | -4.02 ± 0.33 | -2.74 ± 0.22 |
| GGGAAGCAAUAUUACGUCAG | -2.92 ± 0.33 | -2.52 ± 0.33 |
| GGGAAGCAAUAUUACGUCAU | -1.42 ± 0.11 | -0.7 ± 0.13 |
| GGGAAGCAAUAUUACGUCCA | 0.145 ± 0.14 | 0.69 ± 0.16 |
| GGGAAGCAAUAUUACGUCGC | -1.83 ± 0.16 | -0.302 ± 0.17 |
| GGGAAGCAAUAUUACGUGCU | -1.69 ± 0.12 | -0.273 ± 0.11 |
| GGGAAGCAAUAUUACGUUCG | -0.436 ± 0.11 | 0.00472 ± 0.17 |
